Molecular target: T1, mouse integrin alpha7beta1 from digitonin-solubilized skeletal muscle (mouse, UniProt Q61738 34-1135; P09055 21-801, limits assumed)
T1 construct: also called integrin α7β1; alpha7beta1 integrin
Experiment: WGA lectin affinity chromatography and sucrose gradient fractionation of digitonin-solubilized muscle, immunoblot
From the text: Characterization of skeletal muscle dystroglycan and integrin α7 complexes. Sucrose gradient fractionation of the DGC and the integrin α7 complex from wild-type (A, C), DG-deficient (B) and integrin α7-null (D) skeletal muscle solubilized with digitonin. Glycoprotein preparations enriched by WGA-chromatography were fractionated by sucrose gradient centrifugation. Equal volumes of fractions were loaded on an SDS-PAGE gel. The blot generated from this was probed with antibodies against: integrin α7 (α7), integrin β1(β1), α-DG (α-DG), α-sarcoglycan (α-SG), β-sarcoglycan (β-SG) and γ-sarcoglycan (γ-SG).
Lectin affinity chromatography and sucrose gradient fractionation. Total muscle homogenates in TBS (50 mM Tris-Cl pH 7.4, 150 mM NaCl) were solubilized with 1% digitonin. After centrifugation at 140,000×g for 37 min, solubilized proteins in the supernatant were mixed with wheat germ agglutinin (WGA)-agarose beads (Vector Laboratories) and rotated end-over-end at 4° C. for 2 hours. WGA-bound proteins were eluted with TBS containing 0.3 M N-acetyl-D-glucosamine and 0.1% digitonin. The eluant was applied to a 5-30% sucrose gradient and centrifuged at 215,000×g for 90 min. Fractions (1 ml) were collected from the top of the gradient and analyzed by SDS-PAGE.

T1 sequence (Q61738 other isoform, or with tags, fused parts or gaps limits assumed, chain 1 of 2): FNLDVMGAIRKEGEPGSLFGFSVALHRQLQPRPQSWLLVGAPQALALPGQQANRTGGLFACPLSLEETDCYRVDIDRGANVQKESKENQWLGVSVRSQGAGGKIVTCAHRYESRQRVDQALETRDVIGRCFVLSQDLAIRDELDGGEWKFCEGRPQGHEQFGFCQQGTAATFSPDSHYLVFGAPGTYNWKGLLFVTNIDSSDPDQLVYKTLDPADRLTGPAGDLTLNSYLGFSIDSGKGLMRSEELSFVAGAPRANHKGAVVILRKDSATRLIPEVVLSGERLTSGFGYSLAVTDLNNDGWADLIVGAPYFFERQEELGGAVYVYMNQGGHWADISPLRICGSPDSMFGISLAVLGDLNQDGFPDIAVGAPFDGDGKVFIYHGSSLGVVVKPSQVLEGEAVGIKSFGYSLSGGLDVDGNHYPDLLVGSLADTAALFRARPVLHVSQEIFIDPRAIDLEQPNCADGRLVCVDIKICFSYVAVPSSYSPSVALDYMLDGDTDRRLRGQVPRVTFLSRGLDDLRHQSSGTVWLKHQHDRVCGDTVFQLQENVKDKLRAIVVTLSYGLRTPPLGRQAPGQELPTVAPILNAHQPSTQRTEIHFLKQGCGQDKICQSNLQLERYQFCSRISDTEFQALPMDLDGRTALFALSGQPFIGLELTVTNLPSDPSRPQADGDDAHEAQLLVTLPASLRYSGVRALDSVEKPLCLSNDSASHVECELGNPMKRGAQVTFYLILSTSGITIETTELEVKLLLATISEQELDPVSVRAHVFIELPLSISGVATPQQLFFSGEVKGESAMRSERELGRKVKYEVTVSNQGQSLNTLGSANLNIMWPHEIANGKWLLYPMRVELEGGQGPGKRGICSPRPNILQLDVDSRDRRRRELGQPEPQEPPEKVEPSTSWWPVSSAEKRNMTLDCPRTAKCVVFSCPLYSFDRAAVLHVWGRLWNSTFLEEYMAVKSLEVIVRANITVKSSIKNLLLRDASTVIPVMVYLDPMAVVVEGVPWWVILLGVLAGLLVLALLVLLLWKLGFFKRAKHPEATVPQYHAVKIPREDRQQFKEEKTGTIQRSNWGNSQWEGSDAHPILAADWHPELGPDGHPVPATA
T1 sequence (P09055 other isoform, or with tags, fused parts or gaps limits assumed, chain 2 of 2): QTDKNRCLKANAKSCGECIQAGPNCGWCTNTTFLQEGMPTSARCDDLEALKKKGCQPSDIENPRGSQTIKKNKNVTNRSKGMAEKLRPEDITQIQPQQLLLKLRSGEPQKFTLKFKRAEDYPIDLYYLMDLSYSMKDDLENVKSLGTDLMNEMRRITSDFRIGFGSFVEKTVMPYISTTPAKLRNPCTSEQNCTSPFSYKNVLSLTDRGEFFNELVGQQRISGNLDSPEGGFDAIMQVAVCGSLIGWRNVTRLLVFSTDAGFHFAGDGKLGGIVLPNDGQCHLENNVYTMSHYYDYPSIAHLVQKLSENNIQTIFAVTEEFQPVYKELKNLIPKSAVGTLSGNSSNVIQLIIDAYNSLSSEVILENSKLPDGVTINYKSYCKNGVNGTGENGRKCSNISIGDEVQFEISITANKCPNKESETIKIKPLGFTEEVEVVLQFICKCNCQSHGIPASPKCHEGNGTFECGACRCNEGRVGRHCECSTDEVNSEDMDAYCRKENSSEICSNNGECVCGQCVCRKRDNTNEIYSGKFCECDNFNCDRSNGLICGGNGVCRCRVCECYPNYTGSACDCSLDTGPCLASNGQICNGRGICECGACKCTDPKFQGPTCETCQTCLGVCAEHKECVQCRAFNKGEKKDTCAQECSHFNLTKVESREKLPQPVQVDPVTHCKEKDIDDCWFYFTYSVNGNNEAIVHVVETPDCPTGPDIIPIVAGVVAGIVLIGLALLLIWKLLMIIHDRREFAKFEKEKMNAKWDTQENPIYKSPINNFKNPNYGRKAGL

binding result: no binding
B1: mouse dystroglycan from digitonin-solubilized skeletal muscle (receptor)
chain 1: HWPSEPSEAVRDWKNQLEASMHSVLSDFQEAVPTVVGIPDGTAVVGRSFRVSIPTDLIASSGEIIKVSAAGKEALPSWLHWDPHSHILEGLPLDTDKGVHYISVSAARLGANGSHVPQTSSVFSIEVYPEDHNEPQSVRAASSDPGEVVPSACAADEPVTVLTVILDADLTKMTPKQRIDLLNRMQSFSEVELHNMKLVPVVNNRLFDMSAFMAGPGNAKKVVENGALLSWKLGCSLNQNSVPDIRGVETPAREGAMSAQLGYPVVGWHIANKKPTLPKRLRRQIHATPTPVTAIGPPTTAIQEPPSRIVPTPTSPAIAPPTETMAPPVRDPVPGKPTVTIRTRGAIIQTPTLGPIQPTRVSEAGTTVPGQIRPTLTIPGYVEPTAVITPPTTTTKKPRVSTPKPATPSTDSSTTTTRRPTKKPRTPRPVPRVTTKAPITRLETASPPTRIRTTTSGVPRGGEPNQRPELKNHIDRVDAWVGTYFEVKIPSDTFYDNEDTTTDKLKLTLKLREQQLVGEKSWVQFNSNSQLMYGLPDSSHVGKHEYFMHATDKGGLSAVDAFEIHVHKRPQGDKAPARFKARLAGDPAPVVNDIHKKIALVKKLAFAFGDRNCSSITLQNITRG
chain 2: SIVVEWTNNTLPLEPCPKEQIIGLSRRIADENGKPRPAFSNALEPDFKALSIAVTGSGSCRHLQFIPVAPPSPGSSAAPATEVPDRDPEKSSEDDVYLHTVIPAVVVAAILLIAGIIAMICYRKKRKGKLTLEDQATFIKKGVPIIFADELDDSKPPPSSSMPLILQEEKAPLPPPEYPNQSMPETTPLNQDTVGEYTPLRDEDPNAPPYQPPPPFTAPMEGKGSRPKNMTPYRSPPPYVPP
notes: Native protein, WGA-enriched, within the dystrophin-glycoprotein complex; also called DG; DGC
